In the supplement of paper PMC10567573:
± gives the standard deviation.

Assay: protein stability index of a GFP-peptide fusion (GPS, HEK-293T) (PSI 1-6); higher = more stable
[1] = treatment: DMSO, c terminus: a fixed tail appended
[2] = treatment: MLN4924 1 uM, 8 h, c terminus: a fixed tail appended
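Also: 24-mer peptide tiles fused after GFP, lentivirally expressed, FACS-sorted into six equal bins by GFP/DsRed ratio, decoded by Illumina sequencing, PSI is the read-weighted mean bin number.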

Sequence | protein stability index [1] | protein stability index [2] | protein stability index (treatment: DMSO, c terminus: native) | protein stability index (treatment: MLN4924 1 uM, 8 h, c terminus: native)
DDVLPWRRTAENKLDTKYPYVCHA [DCTD] | 3.331 ± 0.026 | 3.31 ± 0.39 | – | –
YPFQDSEPVLLFGKIRRGAYALPA [TRIB3] | 2.48 ± 0.27 | 2.66 ± 0.12 | – | –
AAESPDPPQSPQGASSLPTTMNYP [MAGEA3] | 5.23 ± 0.13 | 5.3 ± 0.1 | – | –
SGATTTAPSLSGKGNPEEEDVDTS [CTNNB1] | 5.61 ± 0.31 | 5.62 ± 0.17 | – | –
HHHGRSRPDRSSQGGSLPSEEKGH [CHGB] | 5.34 ± 0.06 | 5.31 ± 0.083 | – | –
TQRPAMVQTEDQYQFSYRAALEYL [PTPRD] | 2.91 ± 0.35 | 3.06 ± 0.31 | – | –
KLNLCEDGPCHKRRASICCTQLGS [SCARA5] | 3.12 ± 0.2 | 3.3 ± 0.27 | – | –
SRRYTEMALPFFSLAEVRVGYQSQ [MYORG] | 2.3 ± 0.16 | 2.29 ± 0.039 | – | –
PGETRRNSYPRADTGLFSRSKSGS [TRIM29] | 4.73 ± 0.18 | 5.01 ± 0.47 | – | –
GSGVIGRSWAMLFASGGFQVKLYD [CRYL1] | 2.33 ± 0.31 | – | – | –
SCEEVAASSASLEPMWSGSTMRRM [EMID1] | 4.09 ± 0.3 | 4.35 ± 0.18 | – | –
PKAQPQTWKSGKQTMLSHYRPFYV [TRIM29] | 2.57 ± 0.17 | 2.06 ± 0.39 | – | –
LIKSGAHFDATNLHKQTASDLLDE [FEM1C] | 4.61 ± 0.36 | 4.53 ± 0.51 | – | –
NSLLEEETILHFFVQILLALHHVH [NEK8] | 2.38 ± 0.11 | 2.33 ± 0.35 | – | –
MTSLTQRSSGLVQRRTEASRNAAD [GOLPH3] | 4.89 ± 0.27 | 5.03 ± 0.19 | – | –
RNPDQRKESLCISITVSKVDKDQP [FBXO34] | 3.6 ± 0.41 | 3.88 ± 0.24 | – | –
WTFYPRFSSNIHTYHVGKQCFFNG [SPATS1] | 2.74 ± 0.53 | 2.24 ± 0.33 | – | –
NMNDNFLEGEEENELTLNEKNFFP [CHGB] | 4.71 ± 0.16 | 4.81 ± 0.14 | – | –
QQAALPRLSRRMASQHSYPLNRFS [CBY2] | 3.38 ± 0.31 | 3.45 ± 0.31 | – | –
LRTRVKTTGIVETHFTFKDLHFKM [GNAI1] | – | 2.14 ± 0.62 | – | –
RAFVSIQEEMAEDPLTYKSRLMVV [RHOBTB2] | 2.74 ± 0.39 | 2.18 ± 0.4 | – | –
KEKEQENERKVAQLAEENERLKQE [DDIT3] | 5.52 ± 0.1 | 5.55 ± 0.15 | – | –
QTLDKKLMSDLRRKRTAHERAKEL [INTS4] | 4.22 ± 0.27 | 4.26 ± 0.25 | – | –

Sequence | protein stability index [1] | protein stability index [2] | protein stability index (treatment: DMSO, c terminus: native) | protein stability index (treatment: MLN4924 1 uM, 8 h, c terminus: native)
MDETSPLVSPERAQPPDYTFPSGS [PI4K2A] | 4.91 ± 0.15 | 4.78 ± 0.39 | – | –
QQVCQWLLWATNEFSLVNVNLQRF [ETS2] | 3.01 ± 0.23 | 2.94 ± 0.42 | – | –
KRKRVDVEESEASSSVSISHSASA [LMNB1] | 5.29 ± 0.29 | 5.42 ± 0.17 | – | –
LLPKSRENYLNRCMDQERLRREST [FCHO1] | 3.31 ± 0.17 | 3.21 ± 0.16 | – | –
CCPTSREAAVEALELLGATYVDKK [FEM1A] | 4.28 ± 0.06 | 4.3 ± 0.049 | – | –
SLDKVQRSLGPRAPSLRRHVLIHN [SERTAD3] | 3.02 ± 0.32 | 2.96 ± 0.29 | – | –
HVPLQRLSLLVHNVSVMHKSLDNM [FBXO33] | 2.01 ± 0.22 | 2.3 ± 0.12 | – | –
AMVEFVKLLNRCCHLFSTYVASHK [ACBD3] | 2.97 ± 0.19 | 2.85 ± 0.16 | – | –
RARLDSMVLLIMKLDQLDQDIENA [DLC1] | 2.47 ± 0.22 | 2.4 ± 0.39 | – | –
TISSWRNDRMSTRHDGYATNDGNH [RBMY1A1] | 3.99 ± 0.23 | 4.02 ± 0.086 | – | –
IYTHFTCATDTKNVQFVFDAVTDV [GNAI1] | 2.55 ± 0.46 | 3.28 ± 1.5 | – | –
KDVLRYGEEQLKTHKKCKEEVVST [FCHO1] | 4.85 ± 0.13 | 4.78 ± 0.19 | – | –
SQPLDREATSHYIIELLASDAGSP [PCDHGC5] | 3.33 ± 0.27 | 3.52 ± 0.2 | – | –
SPEQQFDRSVQRLLATRIAVYLMT [TMEM175] | 2.31 ± 0.51 | 2.43 ± 0.66 | – | –
HVTVENVQELLPAACLLQLKGVKQ [KLHL12] | 2.96 ± 0.33 | 3.15 ± 0.11 | – | –
PKKIMPEAHSHYLYGHMLSAFRD [PPFIA4] | – | – | 2.35 ± 0.23 | 2.77 ± 0.35
QPQDRNQALGTHRPVNKLAELQCE [RASAL3] | 4.77 ± 0.37 | 4.88 ± 0.25 | – | –
DAPEQRLRVMTTNIRSARGNNPNG [ELOA2] | 4.84 ± 0.23 | 4.95 ± 0.23 | – | –
DDTETVPSEQSHASGKLRKKKKKQ [TCF25] | 5.52 ± 0.44 | 5.88 ± 0.17 | – | –
QRMRVPEKLKVAPPNADLEQGFQE [MFF] | 4.82 ± 0.19 | 4.74 ± 0.092 | – | –
KTPLHQKHAAFVTPDQKYSMDNTP [MYBL2] | 4.14 ± 0.38 | 4.23 ± 0.2 | – | –
ITRESHTHRDRPSQQQPLRNQVVS [CSNK1G1] | 4.49 ± 0.21 | 4.37 ± 0.23 | – | –
